The results in this text go back to PMC4490436.

The target in assay [1] is CXCR4 receptor (human (endogenous in CCRF-CEM)) (UniProt P61073).
The target is the same in assay [2]. This is another data set of the same source.

No end group written: not given here. *: point of attachment. OAll = C=CCO*

Sequence of UniProt P61073 (P61073 whole entry): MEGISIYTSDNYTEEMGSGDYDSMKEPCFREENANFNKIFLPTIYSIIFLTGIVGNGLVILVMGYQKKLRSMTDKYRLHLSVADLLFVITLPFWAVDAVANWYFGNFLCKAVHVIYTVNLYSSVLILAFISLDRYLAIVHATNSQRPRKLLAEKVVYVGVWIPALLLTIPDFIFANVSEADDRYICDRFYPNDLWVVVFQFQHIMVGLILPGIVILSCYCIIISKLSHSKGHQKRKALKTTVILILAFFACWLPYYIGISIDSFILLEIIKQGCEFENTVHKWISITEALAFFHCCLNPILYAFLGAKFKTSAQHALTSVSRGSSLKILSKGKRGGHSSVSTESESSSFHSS

B1: PepE (peptide)
peptide: YGECPCE-OAll
modifications: cysteine pairing not given here
As for B1, the migration index of CCRF-CEM cells towards CXCL12 (100 ng/mL) in a Transwell assay; 1.75-fold without peptide in assay [1] came out at 1.35 fold. Further, the increase of the cAMP level in CCRF-CEM cells in the presence of CXCL12 (100 ng/mL) and forskolin (1 uM); PepE at 1 and 10 uM (20% at 1 uM), dose dependent in assay [2] stood at 65%.

B2: PepK (peptide)
peptide: YGECPCK-OAll
modifications: cysteine pairing not given here
B2: in assay [1], the migration index of CCRF-CEM cells towards CXCL12 (100 ng/mL) in a Transwell assay; 1.75-fold without peptide was 1.55 fold.
